These results are taken from patent publication US20210393523A1, “AROMATIC RING SUBSTITUTED AMPHIPHILIC POLYMERS AS DRUG DELIVERY SYSTEMS” (Avldea Technologies, Inc., priority 2018, published 2021).

Square brackets hold non-standard residues; d marks the D form. Ends that are not written are not given here. N3‑DBCO = triazole linker from reaction of an azide with DBCO; Lys(N3) = [N-]=[N+]=NCCCC[C@H](N)C(=O)O; Phe(4-NH2) = Nc1ccc(C[C@H](N)C(=O)O)cc1

The nature of series [1]: Particle size and stability by dynamic light scattering. The series is classed as physicochemical. The note with it: Table 3; peptide-based linear C-B-H; PBS pH 7.4, 0.5 mg/mL. On the procedure:
To evaluate particle size and stability, 10 μL of the resulting mixture was diluted with 190 μL PBS, pH 7.4 and the resulting solution was evaluated for turbidity and by dynamic light scattering (DLS).
This reaction scheme was used to prepare different compositions of amphiphilic block copolymers that were characterized for the capacity to form stable nanoparticle micelles in aqueous buffer, PBS pH 7.4, at a concentration of 0.5 mg/mL of amphiphilic block copolymer.
A series of linear amphiphilic block copolymers of formula C-B-H, wherein the charged molecule (C) and spacer (B) comprises peptides, i.e., poly(lysine) and poly(serine-co-glycine), respectively, with varying hydrophobic polymer composition were evaluated for particle size and stability by dynamic light scattering.

Another series deals with MC38 tumor cells. The series can be described thus: Regression of established MC38 tumors after intratumoral treatment. The series is classed as in vivo, C57BL/6 mice. The note with it: intratumoral days 11 and 17, 10 and 50 nmol. As for the experimental part:
Tumors were measured by digital callipers for the longest dimension (‘length’) and the distance perpendicular to the length (‘width’), and volume estimated by the formula: <volume=width×width×length/2>. Data are reported as mean±s.e.m in FIGS. 3-5. Tumor regression is noted as soon as 1 day following 50 nmol dose of each S-B-H carrier of TLR-7/8a.

A short description of series [2]: Particle size and stability by dynamic light scattering. The series is classed as physicochemical. The note with it: Table 2; S-[B]-H particles.

As to “KKKKKKK-SGSGSGSGSGSGSGSGSGSGSGSG-(Lys(N3-DBCO))-Ahx-(F′)5: peptide-based linear amphiphilic block copolymer (KKKKKKKSGSGSGSGSGSGSGSGSGSGSGSGK[Phe(4-NH2)][Phe(4-NH2)][Phe(4-NH2)][Phe(4-NH2)][Phe(4-NH2)]; not fully specified (residue 32); printed as KKKKKKK-SGSGSGSGSGSGSGSGSGSGSGSG-(Lys(N3-DBCO))-Ahx-(F′)5; also: Lys joined to F′ block via N3-DBCO-Ahx linkage)”, in series [1], the “Size (diameter, nm)” value was determined as 477 nm.

In the case of “{OH-PEG24}4-{propargyl}4K2K{Lys(N3)}-DBCO-Ahx-(F′)10 [Compound 80]”, the “Regression of established tumors” value in the series with MC38 tumor cells (FIG. 5, nanoparticles admixed with 2BXy and Doxorubicin at 1 to 4 to 4 molar ratio) was “promote regression of established tumors”.

Take “KKK-SGSGSGSGSGSGSGSGSGSGSGSG-(Lys(N3-DBCO))-Ahx-(F′)10: peptide-based linear amphiphilic block copolymer (KKKSGSGSGSGSGSGSGSGSGSGSGSGK[Phe(4-NH2)][Phe(4-NH2)][Phe(4-NH2)][Phe(4-NH2)][Phe(4-NH2)][Phe(4-NH2)][Phe(4-NH2)][Phe(4-NH2)][Phe(4-NH2)][Phe(4-NH2)]; not fully specified (residue 28); printed as KKK-SGSGSGSGSGSGSGSGSGSGSGSG-(Lys(N3-DBCO))-Ahx-(F′)10; also: Lys joined to F′ block via N3-DBCO-Ahx linkage)”: the “Size (diameter, nm)” value in series [1] amounted to 3839 nm.

On to “K7(SG)12×—(N3-DBCO)-Ahx-(F′)20 [Compound 84]”, for which, in the series on MC38 tumor cells (FIG. 4, nanoparticles associated with 2BXy (1 to 4 molar ratio) or covalently linked to 2BXy), the “Regression of established tumors” value is “promote regression of established tumors”.

“KKK-SLVRX-(N3-DBCO)-WWWWW (KKKSLVR[Lys(N3)]WWWWW; not fully specified (residue 8); printed as KKK-SLVRX-(N3-DBCO)-WWWWW; also: azidolysine joined to Trp block via N3-DBCO linkage) [Compound 22]”: in series [2], the “Particle size (Diameter, nm)” value came to 64.73 nm.

In the case of “KKK-SGSGSGSGSGSGSGSGSGSGSGSG-(Lys(N3-DBCO))-Ahx-(F′)5: peptide-based linear amphiphilic block copolymer (KKKSGSGSGSGSGSGSGSGSGSGSGSGK[Phe(4-NH2)][Phe(4-NH2)][Phe(4-NH2)][Phe(4-NH2)][Phe(4-NH2)]; not fully specified (residue 28); printed as KKK-SGSGSGSGSGSGSGSGSGSGSGSG-(Lys(N3-DBCO))-Ahx-(F′)5; also: Lys joined to F′ block via N3-DBCO-Ahx linkage)”, the “Size (diameter, nm)” value in series [1] came out at 1013 nm.

As to “EEEEE-(N3-DBCO)-WWWWW (EEEEE[N3‑DBCO]WWWWW) [Compound 23]”, in series [2], the “Particle size (Diameter, nm)” value is listed as 54.09 nm.

Take “KKKKKKK-SGSGSGSGSGSGSGSGSGSGSGSG-(Lys(N3-DBCO))-Ahx-(F′)20: peptide-based linear amphiphilic block copolymer (KKKKKKKSGSGSGSGSGSGSGSGSGSGSGSGK[Phe(4-NH2)][Phe(4-NH2)][Phe(4-NH2)][Phe(4-NH2)][Phe(4-NH2)][Phe(4-NH2)][Phe(4-NH2)][Phe(4-NH2)][Phe(4-NH2)][Phe(4-NH2)][Phe(4-NH2)][Phe(4-NH2)][Phe(4-NH2)][Phe(4-NH2)][Phe(4-NH2)][Phe(4-NH2)][Phe(4-NH2)][Phe(4-NH2)][Phe(4-NH2)][Phe(4-NH2)]; not fully specified (residue 32); also: Lys joined to F′ block via N3-DBCO-Ahx linkage)”: the “Size (diameter, nm)” value in series [1] is given as 32 nm.
